Assay results as given in the Human Domainome abundance scans (Beltran et al. 2025).

B1: RanBP-type and C3HC4-type zinc finger-containing protein 1, residues 369 to 411; numbered along this chain, Q9BYM8 (parent)
chain: YHCKTPDCKGWCFFEDDVNEFTCPVCFHVNCLLCKAIHEQMNC
B2: Tripartite motif-containing protein 44, residues 174 to 218; numbered along this chain, Q96DX7 (parent)
chain: VAKRKCPDHGLDLSTYCQEDRQLICVLCPVIGAHQGHQLSTLDEA

Variants of: B1
Test: abundance fitness (aPCA) (normalised: wild type 0, dead -1); higher = more abundant; growth selection in yeast, the domain comes from the species named
Conditions: Homo sapiens

Abundance fitness, by site and new letter:
E39: Q -0.012 | C -0.27 | A -0.09 | R -0.111 | L -0.106 | M -0.143 | S -0.09 | K -0.021 | D 0.03 | N -0.081 | V -0.155 | H -0.167 | F -0.213 | G 0.024 | T 0.021 | W -0.249 | P 0.029
C43: H -0.23 | E -0.427 | P -0.211 | Y -0.424 | K -0.37 | V -0.396 | S -0.312 | I -0.511 | A -0.372 | N -0.511 | R -0.323 | G -0.29 | Q -0.357 | M -0.507 | T -0.216
M41: S 0.156 | W -0.035 | T 0.155 | K 0.101 | Y -0.173 | P 0.059 | G 0.202 | I -0.112 | N 0.114 | D 0.094 | A 0.178 | V -0.008 | H 0.043 | L -0.076 | Q 0.15 | F -0.2 | R 0.128 | C -0.004 | E 0.135
H38: T -0.639 | Y -0.721 | S -0.614 | P -0.611 | R -0.699 | V -0.803 | Q -0.63 | N -0.76 | M -0.89 | W -1
N42: L -0.196 | Q 0.304 | S 0.006 | D 0.025 | I -0.231 | M -0.101 | G 0.161 | E 0.075 | P 0.219 | Y -0.122 | R -0.008 | A 0.106 | V -0.141 | T 0.069 | C -0.005 | W -0.069 | F -0.415 | K -0.064 | H 0.138
Q40: F -0.54 | G 0.129 | N 0.036 | P 0.005 | W -0.542 | S 0.023 | D 0.043 | R -0.022 | V -0.32 | C -0.139 | E 0.107 | T 0.068 | L -0.452 | A -0.094 | H -0.031

Variants of: B2
Test: as above
Conditions: Homo sapiens

Abundance fitness: each site, then its substitutions
C6: E -0.946 | Y -0.92 | A -1.05 | P -1.07 | K -0.874 | W -1.06 | M -1.04 | V -1.07 | D -0.701 | Q -0.889 | H -1.1 | N -0.889 | R -0.999 | T -0.783
L11: Q -0.024 | T -0.147 | V -0.183 | Y -0.031 | G -0.169 | W -0.214 | F -0.083 | P -0.778 | M -0.05 | H 0.033 | C -0.009 | R 0 | D -0.198 | S -0.189 | E 0.005 | K 0.016
A2: H 0.03 | L -0.031 | Y -0.027 | S 0.045 | M -0.009 | G -0.04 | F 0.009 | R -0.12 | N 0.096 | T 0.12 | V -0.037 | D 0.053 | C 0.04 | I 0.041 | P -0.088 | E 0.087
R4: K 0.007 | E -0.046 | C -0.248 | L -0.061 | T -0.07 | P -0.314 | G -0.057 | A -0.062 | F -0.041 | H -0.198 | N 0.071 | M 0.023 | S -0.054 | D 0.016 | W -0.162 | V -0.086 | I -0.046
K5: A -0.235 | L -0.15 | Q -0.163 | W -0.308 | T -0.115 | V -0.135 | E -0.173 | N -0.111 | S -0.125 | Y -0.221 | C -0.141 | G -0.218 | R -0.159 | I -0.198 | H -0.24 | D -0.409 | F -0.129
D8: Y 0.049 | K 0.047 | M 0.057 | H 0.038 | S -0.03 | Q 0.028 | L 0.048 | W -0.105 | A 0.016 | E 0.044 | P -0.827 | C -0.103 | I 0.029 | T 0.051 | F -0.034 | N -0.045
S14: I 0.023 | G 0.019 | R -0.098 | H -0.014 | Q -0.001 | V 0.011 | N 0.094 | W -0.155 | K 0.014 | T 0.01 | P -0.688 | E 0.033 | A -0.001 | D 0.006 | M -0.049 | L -0.031 | F -0.074
T15: C -0.153 | A -0.085
H9: T -0.919 | V -0.986 | I -0.891 | F -1.24 | N -0.838 | A -1 | M -0.901 | W -1.03 | P -1.15 | D -0.981 | K -0.995 | Y -0.791 | C -0.103 | Q -0.964 | G -0.91 | S -1.02 | R -0.975 | E -0.863
D12: F -0.15 | M -0.048 | C -0.366 | Q -0.116 | Y -0.132 | R -0.214 | K -0.082 | N -0.072 | S -0.113 | T -0.071 | P -0.033 | A -0.117 | W -0.141 | G -0.098 | E 0.003 | I -0.016 | L -0.166 | H 0.017
L13: C -0.034 | F -0.186 | I -0.154 | S -0.166 | H -0.339 | V -0.082 | T -0.079 | G -0.282 | N -0.296 | K -0.204 | E -0.123 | P -0.276 | R -0.1 | W -0.175 | M -0.031 | Y -0.147 | Q -0.009
P7: G -0.169 | R -0.168 | E -0.446 | S -0.089 | L -0.124 | A -0.013 | D -0.481 | W -0.191 | Q 0.038 | N -0.565 | M -0.036 | F -0.321 | T 0.065 | K -0.342 | V -0.25 | C -0.141 | Y -0.226 | I -0.092
V1: C -0.029 | N -0.097 | E -0.049 | W -0.231 | F -0.197 | M -0.032 | R -0.39 | L -0.196 | S -0.027 | D -0.112 | A -0.13 | P -0.11 | Y -0.226 | I 0.036 | Q -0.159 | H -0.275 | K -0.005 | G -0.107
G10: W -0.311 | H 0.002 | P -0.776 | M -0.078 | K -0.106 | R -0.147 | Y -0.125 | F -0.206 | L -0.116 | I -0.445 | V -0.519 | S -0.064 | C -0.143 | T -0.347 | E -0.074 | N 0.118 | Q -0.027
K3: H -0.08 | D 0.024 | N -0.042 | Q -0.038 | E 0.02 | T -0.013 | I 0.032 | A -0.134 | C -0.379 | L -0.09 | Y -0.137 | F -0.124 | G -0.052 | P -0.093 | V -0.076 | W -0.196 | S -0.056 | R -0.073
